Source: patent US20240369485A1, “FLUORESCENT SENSOR FOR MONITORING CALCIUM DYNAMICS” (priority 2021, published 2024)
Where a chain is given by its changes, count along the chain named. Names and notes keep the numbering of the source. “Also recorded” adds a separate entry of the source. Blank lines part the entries; values can stand above or below the molecule they belong to.

How the values were obtained:
CaSR (wildtype) = biological target: T1, CaSR (wildtype) (Homo sapiens, UniProt P41180); experiment: Epifluorescence imaging of CaSR mediated ER Ca^2+ dynamics using R-CatchER and Fura-2 in HEK293 cells; assay type: cell-based; details: for effect on cytosolic and ER Ca^2+ oscillations: Tg 3 μM, 2-APB 100 μM, ionomycin 20 μM with 10 mM Ca^2+; for effect on frequency of ER Ca^2+ oscillations: in the presence of Ca^2+, HEK293 CaSR
T1 construct: expressed in transfected cells; host or cells: HEK293
T1 sequence (P41180 20-1078): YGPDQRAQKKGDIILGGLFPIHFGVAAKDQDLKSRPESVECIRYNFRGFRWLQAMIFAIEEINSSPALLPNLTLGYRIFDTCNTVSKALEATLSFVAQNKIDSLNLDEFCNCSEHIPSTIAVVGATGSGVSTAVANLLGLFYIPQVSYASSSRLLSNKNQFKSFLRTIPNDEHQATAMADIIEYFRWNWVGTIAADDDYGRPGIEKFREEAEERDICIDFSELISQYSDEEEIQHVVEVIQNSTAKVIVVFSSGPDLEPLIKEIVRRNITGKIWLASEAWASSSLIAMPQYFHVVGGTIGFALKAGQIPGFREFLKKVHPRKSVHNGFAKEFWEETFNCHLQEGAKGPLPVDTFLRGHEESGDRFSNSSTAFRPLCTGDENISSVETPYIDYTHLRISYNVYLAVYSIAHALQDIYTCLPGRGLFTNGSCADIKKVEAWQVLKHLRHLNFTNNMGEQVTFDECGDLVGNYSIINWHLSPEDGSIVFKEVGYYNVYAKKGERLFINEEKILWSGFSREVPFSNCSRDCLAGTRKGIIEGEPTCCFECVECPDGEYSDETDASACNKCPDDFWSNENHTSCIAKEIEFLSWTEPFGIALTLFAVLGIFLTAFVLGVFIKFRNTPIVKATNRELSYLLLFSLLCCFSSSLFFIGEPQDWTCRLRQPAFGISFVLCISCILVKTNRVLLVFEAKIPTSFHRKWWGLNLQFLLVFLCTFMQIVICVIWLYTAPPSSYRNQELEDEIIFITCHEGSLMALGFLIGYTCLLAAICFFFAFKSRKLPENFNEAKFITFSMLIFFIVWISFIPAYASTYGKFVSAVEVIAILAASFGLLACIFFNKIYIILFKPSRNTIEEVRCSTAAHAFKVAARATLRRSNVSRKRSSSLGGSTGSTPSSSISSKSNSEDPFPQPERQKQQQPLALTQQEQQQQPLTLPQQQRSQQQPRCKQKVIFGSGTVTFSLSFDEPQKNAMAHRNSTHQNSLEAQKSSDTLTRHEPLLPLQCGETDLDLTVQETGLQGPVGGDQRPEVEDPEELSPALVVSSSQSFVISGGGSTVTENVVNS
Procedure: Cell culture and transfection. C2C12, HEK293 and HeLa cells were cultured and maintained in Dulbecco's modified Eagle's medium (DMEM) supplemented with 10% fetal bovine serum (FBS) and high glucose (4.5 g/L) at 37° C. R-CatchER, G-CatchER2, G-CEPIA1er, R-CEPIA1er or R-CatchER with GFP-CaSR (wt and mutations) were transfected into cells using Lipofectamine 3000 (Life Technologies), following the manufacturer's instructions. Seed cells onto sterilized 22 mm×40 mm glass microscope slides in 6 cm dishes until about 70% confluency, the day of transfection. The next day, 2 μg of plasmid were mixed with transfection reagent in the reduced serum media Opti-MEM for 4-6 h at 37° C. The media was then replaced with 3 mL of fresh DMEM and incubated at 37° C. for 48 h.
Epifluorescence imaging of class C GPCR mediated ER Ca^2+ dynamics using R-CatchER and Fura-2. HEK293 Cells transfected with R-CatchER and GFP-CaSR (wt and mutations) were incubated with Fura-2 for 30 mins at 37° C. then washed with 2 mL of physiological Ringer buffer (10 mM HEPES, 140 mM NaCl, 5 mM KCl, 1.2 mM MgCl2, 1.8 mM CaCl2) at pH 7.4). The coverslips were mounted on a bath chamber and placed on the stage of a Leica DM6100B inverted microscope with a Hamamatsu cooled EM-CCD camera and illuminated with a Till Polychrome V Xenon lamp. Cells were illuminated at 340 nm, 380 nm and 569 nm, in real-time, as cells were exposed to different concentrations of Ca^2+, cinacalcet, Phe, TNCA, or NPS2143.

[1] = pKa determination of the chromophore; assay type: physicochemical
Procedure: pKa determination. To measure the chromophore pKa of mApple, EGFP, and mCherry variants, the proteins were prepared in buffers (sodium acetate buffer for pH 3-5, MES buffer for pH 5-6, HEPES buffer for pH 6.5-8, TRIS buffer for pH 8.5-9) covering a pH range from 3 to 10. All samples were Incubated at 4° C. overnight, then the following day, the absorbance and fluorescence spectra were collected using a Shimadzu UV-1601 spectrophotometer and the Spectrofluorimeter.

[2] = Quantum yield, extinction coefficient, and brightness determination; assay type: physicochemical; parameters: key to Brightness: extinction coefficient × quantum yield
Procedure: Quantum yield, extinction coefficient, and brightness determination. The quantum yield values of all the variants were determined by measuring the emitted fluorescence intensities and absorbance intensities of the chromophore at different protein concentrations. The wildtype was used as a reference to calculate quantum yield. Brightness was defined as a visual perception in which a source appears to emit or reflect a given amount of light, which was obtained by multiplying the extinction coefficient and the quantum yield.

[3] = Calcium (Ca^2+) binding assay: fluorescence/absorbance titration of purified protein; details: for Aholo/Aapo: absorbance at 569
Procedure: Calcium (Ca^2+) binding assay. 10 μM protein samples of mApple, EGFP, and mCherry variants were titrated with different concentrations of Ca^2+. Data were fitted with a 1:1 binding equation. Fluorescence intensities were collected using a Spectrofluorimeter (Photon Technology International, Inc.) and the absorbance values of Ca^2+-free and Ca^2+-loaded forms were determined using a Shimadzu UV-1601 spectrophotome.
Ca^2+ binding assay. Fluorescence measurements of mApple variants with increasing Ca^2+ concentrations were done in order to obtain the affinity of the sensor for Ca^2+ in vitro. Samples of 10 μM mApple variants with 5 μM EGTA were prepared in triplicate in 1 mL volumes in 10 mM Tris, pH 7.4. The samples were placed in quartz fluorescence cuvettes, and metal ion was titrated into each sample, in a stepwise manner, using 0.1 M and 1 M metal stock solutions. The fluorescence response of the indicator to increasing Ca^2+ concentrations was monitored using a fluorescence spectrophotometer (Photon Technology International, Canada) with the Felix32 fluorescence analysis software. The absorbance spectra before and after titration were obtained using a Shimadzu UV-1601 spectrophotometer.

[4] = mCherry based indicators, Ca^2+ induced fluorescence change

Molecule: NCCOB(c1ccccc1)c1ccccc1 [2-APB, 2-Aminoethoxydiphenyl borate]
effect on cytosolic and ER Ca^2+ oscillations (CaSR (wildtype)): eliminated; also recorded: elimination

Molecule: C[C@@H](NCCCc1cccc(C(F)(F)F)c1)c1cccc2ccccc12 [Cinacalcet]
effect on frequency of ER Ca^2+ oscillations (CaSR (wildtype); R-CatchER): increased the frequency

Molecule: N[C@@H](Cc1ccccc1)C(=O)O [L-Phe]
Ca^2+ release from the ER, area under the curve (AUC) (CaSR (wildtype); 5 mM L-Phe alone, R-CatchER): 19.54±1.08
effect on frequency of ER Ca^2+ oscillations (CaSR (wildtype); R-CatchER): increased the frequency
EC50 (CaSR (wildtype); in the presence of L-Phe, read out with R-CatchER, read-out: EC50 of ER Ca^2+ mobilization by extracellular Ca^2+): 2.7 ± 0.1 mM

Molecule: CC(C)(Cc1ccc2ccccc2c1)NC[C@@H](O)COc1cccc(Cl)c1C#N [NPS2143]
effect on frequency of ER Ca^2+ oscillations (CaSR (wildtype); R-CatchER): decreased the frequency

Molecule: C/C=C(/C)C(=O)O[C@H]1C(C)=C2[C@H]([C@@H]1OC(=O)CCCCCCC)[C@@](C)(OC(C)=O)C[C@H](OC(=O)CCC)[C@@]1(O)[C@H]2OC(=O)[C@@]1(C)O [Tg, Thapsigargin]
effect on cytosolic and ER Ca^2+ oscillations (CaSR (wildtype)): eliminated; also recorded: elimination

Molecule: C[C@H](CCC(=O)O)C[C@H](C)C[C@H](C)C(=O)/C=C(\O)[C@H](C)C[C@H](C)C/C=C/[C@@H](C)[C@@H](O)[C@@H](C)[C@@H](O)C[C@@H]1CC[C@@](C)([C@H]2CC[C@@](C)([C@@H](C)O)O2)O1 [ionomycin]
effect on cytosolic and ER Ca^2+ oscillations (CaSR (wildtype)): eliminated; also recorded: abolished

B7: mApple A145D/K198D/R216E: mApple variant, SEQ ID NO: 26 (protein)
chain: EENNMAIIKEFMRFKVHMEGSVNGHEFEIEGEGEGRPYEAFQTAKLKVTKGGPLPFAWDILSPQFMYGSKVYIKHPADIPDYFKLSFPEGFRWERVMNFEDGGIIHVNQDSSLQDGVFIYKVKLRGTNFPSDGPVMQKKTMGWEDSEERMYPEDGALKSEIKKRLKLKDGGHYAAEVKTTYKAKKPVQLPGAYIVDIDLDIVSHNEDYTIVEQYEEAEGRHSTGGMDELYK
Fmax/Fmin ([3]; EGFP and mApple variants): 3.75
Aholo/Aapo [3]: 1.57 (569)

B8: mApple A145D/E147D/K198D/R216E: mApple variant, SEQ ID NO: 28 (protein)
chain: B7 chain with E147D
Fmax/Fmin ([3]; EGFP and mApple variants): 3.23
Aholo/Aapo [3]: 1.84 (569)

Second part, led by results:

Fmax/Fmin ([3]; EGFP and mApple variants): 1.02
Aholo/Aapo [3]: 1.07 (569)
B1: mApple: red fluorescent scaffold protein, SEQ ID NO: 11 (protein)
chain: B7 chain with D145A, D198K, E216R
pka ([1]; scaffold, no apo/holo stated): 6.26 ± 0.23
Brightness ([2]; scaffold, no apo/holo stated): 0.37 ± 0.01
Extinction coefficient ([2]; scaffold, no apo/holo stated): 75000 M⁻¹ cm⁻¹
Fluorescence quantum yield ([2]; scaffold, no apo/holo stated): 0.49 ± 0.01

Fmax/Fmin ([3]; EGFP and mApple variants): 1.17
Aholo/Aapo [3]: 1.41 (569)
B2: mApple K198D: mApple variant, SEQ ID NO: 23 (protein)
chain: B7 chain with D145A, E216R
pka ([1]; Apo): 6.68 ± 0.09
pka ([1]; Holo): 6.90 ± 0.12
Brightness ([2]; Apo): 0.32 ± 0.01
Extinction coefficient ([2]; Apo): 59000 M⁻¹ cm⁻¹
Fluorescence quantum yield ([2]; Apo): 0.54 ± 0.01
Brightness ([2]; Holo): 0.42 ± 0.03
Extinction coefficient ([2]; Holo): 69000 M⁻¹ cm⁻¹
Fluorescence quantum yield ([2]; Holo): 0.61 ± 0.03

Fmax/Fmin ([3]; EGFP and mApple variants): 2.15
Aholo/Aapo [3]: 1.04 (569)
B3: mApple A145E/K198E/R216E: mApple variant, SEQ ID NO: 30 (protein)
chain: B7 chain with D145E, D198E

Fmax/Fmin ([3]; EGFP and mApple variants): 4.43
Aholo/Aapo [3]: 1.66 (569)
B4: mApple A145E/E147D/K198D/R216E: mApple variant, SEQ ID NO: 27 (protein)
chain: B7 chain with D145E, E147D

Fmax/Fmin ([3]; EGFP and mApple variants): 2.64
Aholo/Aapo [3]: 1.59 (569)
B5: mApple A145E/K198D/R216E/E218D: mApple variant, SEQ ID NO: 29 (protein)
chain: B7 chain with D145E, E218D

Fmax/Fmin ([3]; EGFP and mApple variants): 2.48
Aholo/Aapo [3]: 2.21 (569)
B6: mApple K198D/R216D: mApple variant, SEQ ID NO: 24 (protein)
chain: B7 chain with D145A, E216D
pka ([1]; Apo): 7.04 ± 0.11
pka ([1]; Holo): 6.56 ± 0.11
Brightness ([2]; Apo): 0.15 ± 0.01
Extinction coefficient ([2]; Apo): 38000 M⁻¹ cm⁻¹
Fluorescence quantum yield ([2]; Apo): 0.40 ± 0.01
Brightness ([2]; Holo): 0.37 ± 0.01
Extinction coefficient ([2]; Holo): 65000 M⁻¹ cm⁻¹
Fluorescence quantum yield ([2]; Holo): 0.58 ± 0.01

Fmax/Fmin [3, 4]: 0.93 ± 0.02
B9: mCherry A145E/N196D/K198D: mCherry based indicator attempt, 4 negatively charged residues (protein)
chain: EEDNMAIIKEFMRFKVHMEGSVNGHEFEIEGEGEGRPYEGTQTAKLKVTKGGPLPFAWDILSPQFMYGSKAYVKHPADIPDYLKLSFPEGFKWERVMNFEDGGVVTVTQDSSLQDGEFIYKVKLRGTNFPSDGPVMQKKTMGWEESSERMYPEDGALKGEIKQRLKLKDGGHYDAEVKTTYKAKKPVQLPGAYNVDIDLDITSHNEDYTIVEQYERAEGRHSTGGMDELYK

Fmax/Fmin [3, 4]: 1.05 ± 0.06
B10: mCherry A145E/N196D/K198D/R216E: mCherry based indicator attempt, 5 negatively charged residues (protein)
chain: B9 chain with R216E
